Data from patent US20110008376.

Key:
[1] = target: cH5-1 (misfolded H5 of A/VN/1203/04, heat cycling)
[2] = target: cH5-2 (misfolded H5 of A/VN/1203/04, heat cycling at pH 2)
[3] = target: cH5-3 (misfolded H5 of A/VN/1203/04, heat cycling at pH 12)
[4] = target: cH5-4 (glycated H5 of A/VN/1203/04)
[5] = target: T1, dOVA-1 (misfolded ovalbumin comprising crossbeta, acid treated), P01012
T1 chain: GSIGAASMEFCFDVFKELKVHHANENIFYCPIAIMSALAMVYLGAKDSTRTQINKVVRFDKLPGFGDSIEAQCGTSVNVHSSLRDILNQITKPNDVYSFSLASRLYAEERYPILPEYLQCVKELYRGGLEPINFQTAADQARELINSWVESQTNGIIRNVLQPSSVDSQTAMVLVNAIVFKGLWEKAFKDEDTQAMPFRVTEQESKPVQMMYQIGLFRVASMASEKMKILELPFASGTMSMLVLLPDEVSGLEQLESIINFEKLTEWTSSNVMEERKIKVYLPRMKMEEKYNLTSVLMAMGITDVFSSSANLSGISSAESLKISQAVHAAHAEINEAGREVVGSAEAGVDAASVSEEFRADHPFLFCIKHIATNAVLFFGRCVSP

[6] = target: T2, dOVA-2 (misfolded ovalbumin comprising crossbeta, cyclic heating 30-85 C), P01012
T2 chain: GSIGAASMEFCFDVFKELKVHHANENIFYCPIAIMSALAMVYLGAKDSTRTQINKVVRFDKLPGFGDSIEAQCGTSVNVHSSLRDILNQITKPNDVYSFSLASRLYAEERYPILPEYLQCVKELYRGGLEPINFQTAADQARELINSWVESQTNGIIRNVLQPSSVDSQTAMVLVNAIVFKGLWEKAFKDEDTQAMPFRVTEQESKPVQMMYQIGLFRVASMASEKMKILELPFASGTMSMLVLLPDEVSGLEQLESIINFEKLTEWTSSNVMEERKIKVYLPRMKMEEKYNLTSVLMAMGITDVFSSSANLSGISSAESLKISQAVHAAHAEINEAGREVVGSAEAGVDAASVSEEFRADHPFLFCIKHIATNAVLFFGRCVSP

[7] = target: T3, dOVA-3 (misfolded ovalbumin comprising crossbeta, about 16 h at 75 C), P01012
T3 chain: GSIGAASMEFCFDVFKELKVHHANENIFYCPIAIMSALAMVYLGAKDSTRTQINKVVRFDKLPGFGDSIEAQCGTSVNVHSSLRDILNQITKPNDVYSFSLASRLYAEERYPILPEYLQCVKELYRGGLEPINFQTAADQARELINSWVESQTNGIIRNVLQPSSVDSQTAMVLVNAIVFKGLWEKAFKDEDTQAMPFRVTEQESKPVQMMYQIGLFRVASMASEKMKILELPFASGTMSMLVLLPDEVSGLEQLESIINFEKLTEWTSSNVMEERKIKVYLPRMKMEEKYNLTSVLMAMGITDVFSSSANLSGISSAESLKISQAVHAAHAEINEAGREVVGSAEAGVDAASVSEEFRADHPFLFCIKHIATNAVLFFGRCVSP

[8] = target: nH5 (non-treated H5 of H5N1 strain A/Vietnam/1203/04, first example)
[9] = target: T4, nOVA (untreated ovalbumin, 1 mg/ml in PBS), P01012
T4 chain: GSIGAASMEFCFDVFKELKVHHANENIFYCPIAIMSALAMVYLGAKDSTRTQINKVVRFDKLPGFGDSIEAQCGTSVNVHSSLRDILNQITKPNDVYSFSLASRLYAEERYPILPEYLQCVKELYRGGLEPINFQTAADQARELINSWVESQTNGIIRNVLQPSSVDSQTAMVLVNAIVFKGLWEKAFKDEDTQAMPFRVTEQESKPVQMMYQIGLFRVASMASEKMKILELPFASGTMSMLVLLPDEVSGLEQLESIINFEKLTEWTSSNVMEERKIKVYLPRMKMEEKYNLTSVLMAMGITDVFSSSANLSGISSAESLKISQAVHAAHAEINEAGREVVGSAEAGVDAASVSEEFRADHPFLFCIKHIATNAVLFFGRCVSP

B1: tissue type plasminogen activator (tPA) (protein)
chain: SYQVICRDEKTQMIYQQHQSWLRPVLRSNRVEYCWCNSGRAQCHSVPVKSCSEPRCFNGGTCQQALYFSDFVCQCPEGFAGKCCEIDTRATCYEDQGISYRGTWSTAESGAECTNWNSSALAQKPYSGRRPDAIRLGLGNHNYCRNPDRDSKPWCYVFKAGKYSSEFCSTPACSEGNSDCYFGNGSAYRGTHSLTESGASCLPWNSMILIGKVYTAQNPSAQALGLGKHNYCRNPDGDAKPWCHVLKNRRLTWEYCDVPSCSTCGLRQYSQPQFRIKGGLFADIASHPWQAAIFAKHRRSPGERFLCGGILISSCWILSAAHCFQERFPPHHLTVILGRTYRVVPGEEEQKFEVEKYIVHKEFDDDTYDNDIALLQLKSDSSRCAQESSVVRTVCLPPADLQLPDWTECELSGYGKHEALSPFYSERLKEAHVRLYPSSRCTSQHLLNRTVTDNMLCAGDTRSGGPQANLHDACQGDSGGPLVCLNDGRMTLVGIISWGLGCGQKDVPGVYTKVTNYLDWIRDNMRP
Q: Which results are given for B1?
A: tPA mediated plasminogen activation assay [1]: cH5-1 (50% of standard); tPA mediated plasminogen activation assay [2]: cH5-2 (150% of standard); tPA mediated plasminogen activation assay [3]: cH5-3 (200% of standard); tPA mediated plasminogen activation assay [4]: cH5-4 (37% of standard); tPA activation potency, Activation at 10 µg/mL [5]: 97.4%; tPA activation potency, Activation at 25 µg/mL [5]: 136%; tPA activation potency, Activation at 10 µg/mL [6]: 107%; tPA activation potency, Activation at 25 µg/mL [6]: 107%; tPA-mediated plasminogen activation (plasmin chromogenic substrate), reference dOVA-2 at 80 µg/mL [6]: 100%; tPA/Plg activating potential, crossbeta ovalbumin standard at 10 µg/ml [6]: at 10 and 50 µg/ml, tPA/plg activation is 100% and 85%, respectively; tPA/Plg activating potential, crossbeta ovalbumin standard at 30 µg/ml [6]: The activating potential of crossbeta ovalbumin standard at 30 µg/ml is set to 100%; tPA/Plg activating potential, crossbeta ovalbumin standard at 50 µg/ml [6]: at 10 and 50 µg/ml, tPA/plg activation is 100% and 85%, respectively; tPA activation potency, Activation at 10 µg/mL [7]: 60.9%; tPA activation potency, Activation at 25 µg/mL [7]: 79%; tPA mediated plasminogen activation assay [8]: nH5 (140% of standard); tPA activation potency, Activation at 10 µg/mL [9]: 48.8%; tPA activation potency, Activation at 25 µg/mL [9]: 48.1%
